According to publication PMC4406087, “Remaining challenges in cellular flavin cofactor homeostasis and flavoprotein biogenesis” (Frontiers in Chemistry, 2015):

How the values were obtained:
[1] = system: T1, Cc1cc2nc3c(=O)[nH]c(=O)nc-3n(C[C@H](O)[C@H](O)[C@H](O)COP(=O)(O)O)c2cc1C; experiment: spectrofluorimetric FAD synthesis assay; assay type: biochemical, Homo sapiens; conditions: 50 mM Tris-HCl pH 7.5, 5 mM MgCl2, 37°C, Km app at the highest ATP (ATP 1 to 100 μM; 8 μM at lowest ATP)
T1 construct: recombinant 6His-tagged cytosolic isoform 2, purified

[2] = system: T2, Nc1ncnc2c1ncn2[C@@H]1O[C@H](COP(=O)(O)OP(=O)(O)OP(=O)(O)O)[C@@H](O)[C@H]1O; experiment: spectrofluorimetric FAD synthesis assay; assay type: biochemical, Homo sapiens; conditions: 50 mM Tris-HCl pH 7.5, 5 mM MgCl2, 37°C, FMN 0.1-2 μM, ordered bi-bi, ATP binds first
T2 construct: recombinant 6His-tagged cytosolic isoform 2, purified

Chain of 6His-hFADS2 (Homo sapiens) (chain, as listed by the source): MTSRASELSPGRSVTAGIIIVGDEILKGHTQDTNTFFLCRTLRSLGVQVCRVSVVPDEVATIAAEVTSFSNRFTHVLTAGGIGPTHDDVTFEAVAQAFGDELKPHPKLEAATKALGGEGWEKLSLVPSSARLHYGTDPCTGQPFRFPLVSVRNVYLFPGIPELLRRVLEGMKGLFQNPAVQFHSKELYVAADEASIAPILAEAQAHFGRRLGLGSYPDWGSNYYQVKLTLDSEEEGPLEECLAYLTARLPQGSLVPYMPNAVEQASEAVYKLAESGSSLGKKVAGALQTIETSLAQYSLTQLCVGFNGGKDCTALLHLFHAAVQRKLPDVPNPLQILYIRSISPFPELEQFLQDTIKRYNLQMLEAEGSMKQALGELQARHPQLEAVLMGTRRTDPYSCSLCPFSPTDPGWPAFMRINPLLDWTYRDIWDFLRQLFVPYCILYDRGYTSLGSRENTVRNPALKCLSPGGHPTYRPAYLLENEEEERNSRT

6His-hFADS2 (Homo sapiens)
Km [1]: 0.4 µM
Km [2]: 15 µM
